The supplement of paper PMC9112550, “Optimization of the antimicrobial peptide Bac7 by deep mutational scanning” (BMC Biology, 2022)

test system: Escherichia coli TOP10; test: shrunken log2 fold change of peptide-encoding DNA abundance (4.5 h post-induction vs induction); higher = less antimicrobial activity (less host growth inhibition); settings: time post-induction: 4.5 h; library: site-saturation at positions 5, 18, 19, 20
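Also: peptides expressed intracellularly from a pBAD plasmid library in pooled LB shake-flask culture, induced with 0.3% L-arabinose, DNA abundance read by NGS, three biological replicates, DESeq2 with apeglm shrinkage.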

Sequence | shrunken log2 fold change
RRIRERPPRLPRPRPRPLTCPRP | -0.149
RRIRWRPPRLPRPRPRPVWFPRP | 0.563
RRIRMRPPRLPRPRPRPKIVPRP | 0.0132
RRIRLRPPRLPRPRPRPWDGPRP | -0.153
RRIRLRPPRLPRPRPRPDPRPRP | 0.603
RRIRRRPPRLPRPRPRPGEMPRP | 0.122
RRIRARPPRLPRPRPRPWHSPRP | 0.0528
RRIRSRPPRLPRPRPRPDSQPRP | -0.267
RRIRKRPPRLPRPRPRPGFCPRP | 0.243
RRIRYRPPRLPRPRPRPKHNPRP | -0.68
RRIRLRPPRLPRPRPRPCDYPRP | -0.191
RRIRNRPPRLPRPRPRPDPHPRP | -0.263
RRIRNRPPRLPRPRPRPLWHPRP | -0.185
RRIRKRPPRLPRPRPRPWSPPRP | 0.0668
RRIRYRPPRLPRPRPRPCRGPRP | -0.157
RRIRQRPPRLPRPRPRPSYEPRP | 0.0509
RRIRDRPPRLPRPRPRPVFDPRP | 0.291
RRIRERPPRLPRPRPRPCDHPRP | -0.0479
RRIRSRPPRLPRPRPRPQALPRP | 0.0266
RRIRVRPPRLPRPRPRPHNPPRP | -0.272
RRIRVRPPRLPRPRPRPFFDPRP | 1.19
RRIRQRPPRLPRPRPRPDLQPRP | -0.0429
RRIRWRPPRLPRPRPRPRCWPRP | 0.616
RRIRVRPPRLPRPRPRPYETPRP | 0.0231
RRIRIRPPRLPRPRPRPNEHPRP | -0.459

Sequence | shrunken log2 fold change
RRIRHRPPRLPRPRPRPSLLPRP | -0.287
RRIRARPPRLPRPRPRPSTPPRP | 0.235
RRIRARPPRLPRPRPRPMQFPRP | 0.091
RRIRKRPPRLPRPRPRPILVPRP | 0.0199
RRIRFRPPRLPRPRPRPMVYPRP | -0.389
RRIRYRPPRLPRPRPRPKPWPRP | 0.03
RRIRQRPPRLPRPRPRPIFWPRP | 0.142
RRIRARPPRLPRPRPRPMMEPRP | 0.0919
RRIRYRPPRLPRPRPRPKTDPRP | -0.863
RRIRNRPPRLPRPRPRPEGQPRP | -0.00174
RRIRQRPPRLPRPRPRPGDEPRP | 0.021
RRIRERPPRLPRPRPRPILVPRP | 0.028
RRIRRRPPRLPRPRPRPYLNPRP | -1.13
RRIRVRPPRLPRPRPRPSSSPRP | -0.113
RRIRNRPPRLPRPRPRPFFRPRP | -0.378
RRIRPRPPRLPRPRPRPDQMPRP | 0.196
RRIRNRPPRLPRPRPRPPCYPRP | -0.41
RRIRLRPPRLPRPRPRPRPWPRP | 0.199
RRIRRRPPRLPRPRPRPGAAPRP | 0.866
RRIRIRPPRLPRPRPRPVDSPRP | 0.0804
RRIRWRPPRLPRPRPRPEYMPRP | -0.0342
RRIRTRPPRLPRPRPRPGHSPRP | 0.0834
RRIRARPPRLPRPRPRPARVPRP | 0.813
RRIRMRPPRLPRPRPRPEPEPRP | 2.64
RRIRRRPPRLPRPRPRPKINPRP | -0.123

Sequence | shrunken log2 fold change
RRIRIRPPRLPRPRPRPPYMPRP | -1.19
RRIRPRPPRLPRPRPRPCQWPRP | 0.205
RRIRFRPPRLPRPRPRPMAIPRP | -0.226
RRIRWRPPRLPRPRPRPHMAPRP | 0.00551
RRIRRRPPRLPRPRPRPYFKPRP | -0.572
RRIRIRPPRLPRPRPRPAAVPRP | -0.181
RRIRDRPPRLPRPRPRPWCTPRP | 0.107
RRIRWRPPRLPRPRPRPQDIPRP | -0.352
RRIRERPPRLPRPRPRPQQEPRP | -0.0361
RRIRARPPRLPRPRPRPPNFPRP | -0.0624
RRIRVRPPRLPRPRPRPPSQPRP | 0.125
RRIRDRPPRLPRPRPRPALMPRP | 0.333
RRIRHRPPRLPRPRPRPCMAPRP | -0.213
RRIRTRPPRLPRPRPRPWYGPRP | -0.379
RRIRLRPPRLPRPRPRPNPRPRP | 0.304
RRIRQRPPRLPRPRPRPKLVPRP | -0.0518
RRIRERPPRLPRPRPRPHMWPRP | -0.0491
RRIRARPPRLPRPRPRPRVHPRP | 0.555
RRIRQRPPRLPRPRPRPVWMPRP | -0.00887
RRIRSRPPRLPRPRPRPLFPPRP | -0.00148
RRIRDRPPRLPRPRPRPMMVPRP | 0.0541
RRIRYRPPRLPRPRPRPAPKPRP | 0.207
RRIRWRPPRLPRPRPRPGCIPRP | 0.293
RRIRMRPPRLPRPRPRPSNNPRP | -0.0389
RRIRSRPPRLPRPRPRPGDKPRP | 0.0832
